Assay results published in article PMC9008036, “Structural and molecular determinants for the interaction of ExbB from Serratia marcescens and HasB, a TonB paralog” (Communications Biology, 2022).

Key:
[1] = biological target: ExbBSm, C-terminally His6-tagged (from pBADExbBSmHis6), purified alone (Serratia marcescens); assay: cryo-EM structure; purified ExbBSm-His6 alone in LMNG micelles, ca. 1 mg/mL, 20 mM Tris pH 8.0, 100 mM NaCl, 0.0015% LMNG; single-particle, C5 symmetry, 3.1 Å
[2] = biological target: ExbBSm, untagged, co-expressed and co-purified with ExbDSm-His6 (from pBADExbBDSmHis6) (Serratia marcescens); assay: cryo-EM structure; purified ExbBDSm complex (His6 on ExbD) in LMNG micelles, ca. 1 mg/mL, 20 mM Tris pH 8.0, 100 mM NaCl, 0.0015% LMNG; single-particle, C1, 3.96 Å
[3] = biological target: T1, C-terminal periplasmic domain of HasB, HasBCTD, residues 133-263 (Serratia marcescens, UniProt Q79AD1 133-263, 15N-labeled); assay: NMR titration; 1H-15N HSQC of 0.15 mM 15N-labeled HasBCTD, 50 mM sodium phosphate pH 7, 50 mM NaCl, 293 K, 600 MHz; peptide added at 2:1 and 10:1 ratios; chemical shift perturbations; conditions: both partners purified
T1 construct: HasB, TonB paralog of Serratia marcescens, C-terminal periplasmic domain, residues 133-263; also called C-terminal globular domain of HasB
T1 sequence (looked up): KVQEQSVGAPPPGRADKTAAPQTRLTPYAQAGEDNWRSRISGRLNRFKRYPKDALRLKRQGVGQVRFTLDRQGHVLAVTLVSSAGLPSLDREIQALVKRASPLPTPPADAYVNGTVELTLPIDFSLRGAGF

ExbBSm, C-terminally His6-tagged (from pBADExbBSmHis6), purified alone (natural protein)
stoichiometry N [1]: 5

ExbBSm, untagged, co-expressed and co-purified with ExbDSm-His6 (from pBADExbBDSmHis6) (natural protein)
stoichiometry N [2]: 5

ExbDSm, C-terminally His6-tagged (from pBADExbBDSmHis6) (natural protein)
stoichiometry N (ExbD monomers per ExbB pentamer) [2]: 2

B1: ExbBSm 1-44 synthetic peptide (periplasmic extension of ExbBSm) (peptide)
peptide: APAANPAVTESVAPTTAPAPAAAAPESITPVNPAPTIQPPETRG
notes: ExbB of Serratia marcescens Db11 (SMDB11_3480), periplasmic N-terminal extension, residues 1-44. numbers count on: the mature protein; also called periplasmic peptide of ExbBSm residues 1-44; periplasmic fragment of ExbBSm; source: synthetic peptide (Proteogenix)
binding result [3]: binds
